Reference: doi:10.1101/625327

Assays:
Experiment in all cases: SPR
M/N20 = M/N20 (UniProt Q9UBB5)
M/N60 = M/N60 (UniProt Q9UBB5)
M/N120 = M/N120 (UniProt Q9UBB5)

- Kd (M/N20): 3 nM
- Kd (M/N60): 3 nM
- Kd (M/N120): 3 nM
Substance: P15 (from UniProt Q86YP4 137-178) (domain or fragment)
